From US7202329B2, “Tsg101-GAGp6 interaction and use thereof” (priority 2001, dated 2007)

Experiments:
Tsg101 = biological target: T1, Tsg101 (Homo sapiens, UniProt Q99816); assay: Yeast two-hybrid filter lift assay for β-Gal activity (Tsg101 / GAGp6 interaction); assay type: cell-based; set-up: key to Interactions Between Tsg101 and GAGp6 (β-Gal activity, filter lift): +: Positive β-Gal activity indicates that the GAGp6 wild type or mutant protein interacts with Tsg101; conditions: for ability to bind Tsg101 protein (in words): yeast two-hybrid, GAGp6 point mutants
T1 construct: expressed in transfected cells; host or cells: Saccharomyces cerevisiae strain Y189
T1 sequence (Q99816 1-390): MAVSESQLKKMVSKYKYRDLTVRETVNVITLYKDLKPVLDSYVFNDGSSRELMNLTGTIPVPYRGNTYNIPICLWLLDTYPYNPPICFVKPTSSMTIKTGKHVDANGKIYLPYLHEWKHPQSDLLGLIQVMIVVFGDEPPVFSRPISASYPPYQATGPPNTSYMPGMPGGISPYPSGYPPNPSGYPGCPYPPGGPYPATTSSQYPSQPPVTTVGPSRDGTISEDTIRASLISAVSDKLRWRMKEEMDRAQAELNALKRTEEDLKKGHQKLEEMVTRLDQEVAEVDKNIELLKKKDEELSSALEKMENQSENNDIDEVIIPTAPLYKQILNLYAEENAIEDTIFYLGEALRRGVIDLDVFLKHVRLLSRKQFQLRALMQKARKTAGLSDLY
Source text: Yeast two-hybrid assays were utilized to determine the effect of amino acid substitution mutations in the PTAP motif of HIV GAGp6 on the interaction between Tsg101 and GAGp6. To prepare a yeast two-hybrid activation domain-Tsg101 construct, a DNA fragment encompassing the full-length coding sequence for Tsg101 according to GenBank Accession No. U82130 was obtained by PCR from a human fetal brain cDNA library and cloned into the EcoRI/Pst1 sites of the activation domain parent plasmid GADpN2 (LEU2, CEN4, ARS1, ADH1p-SV40NLS-GAL4 (768–881)-MCS (multiple cloning site)-PGK1t, AmpR, ColE1_ori).
To prepare the yeast two-hybrid DNA binding domain-HIV1 GAGp6 construct, a DNA fragment corresponding to the HIV1 GAGp6 peptide derived from the HIV1.NL43 strain GAG protein was obtained by PCR from the NL43 containing plasmid R9≢apa and was cloned into the EcoRI/Sal1 sites of the binding domain parent plasmid pGBT.Q.
The following amino acid substitution mutations were introduced by PCR into the HIV1 GAGp6 sequence in the yeast two-hybrid binding domain-HIV1 GAGp6 construct described above. The mutations were verified by DNA sequence analysis.
To test the effect of the mutations, yeast cells of the strain Y189 purchased from Clontech (ura3-52 his3*200 ade2-101 trp1-901 leu2-3,112 met gal4 gal80 URA3::GAL1p-lacZ) were co-transformed with the activation domain-Tsg101 construct and one of the binding domain-mutant GAGp6 constructs or the binding domain-wild type GAGp6 construct. Filter lift assays for β-Gal activity were conducted by lifting the transformed yeast colonies with filters, lysing the yeast cells by freezing and thawing, and contacting the lysed cells with X-Gal. […] All binding domain constructs were also tested for self-activation of β-Gal activity.

Full length Tsg101 = biological target: T2, Full length Tsg101 (Homo sapiens, UniProt Q99816); assay: Two-hybrid liquid culture β-galactosidase assay; assay type: cell-based; conditions: p6 point mutants
T2 construct: expressed in transfected cells; host or cells: Saccharomyces cerevisiae strain Y189
T2 sequence (Q99816 1-390): T1 sequence (Q99816 1-390)
Description: The interactions between Tsg101 and wild-type GAGp6 (WT) or the GAGp6 PTAP mutants were further quantitated by performing liquid culture β-galactosidase assays. Cultures were grown overnight in synthetic media (−Leu, −Trp, +glucose) in 96 well plates, normalized for optical density, and lysed by addition of 6× lysis/substrate solution in 6× Z-buffer (60 mM KCl, 6 mM MgSO4, 360 mM Na2HPO4, 240 mM NaH2PO4, 6 mg/ml CPRG, 0.12U/ml lyticase, 0.075% NP-40). Cultures were incubated for 2 hr at 37° C., clarified by centrifugation, and the optical absorbance of each supernatant was measured (575 nm). Full length Tsg101 bound wild-type p6 in the two-hybrid liquid culture assay, resulting in high levels of β-galactosidase activity (>300-fold over background). […] Each of these point mutations also arrests HIV-1 budding at a late stage (Huang et al. 1995).

ROCK1 = ROCK1 (Homo sapiens, UniProt Q13464); conditions: cited from earlier work
Sequence of ROCK1 (Q13464 whole entry): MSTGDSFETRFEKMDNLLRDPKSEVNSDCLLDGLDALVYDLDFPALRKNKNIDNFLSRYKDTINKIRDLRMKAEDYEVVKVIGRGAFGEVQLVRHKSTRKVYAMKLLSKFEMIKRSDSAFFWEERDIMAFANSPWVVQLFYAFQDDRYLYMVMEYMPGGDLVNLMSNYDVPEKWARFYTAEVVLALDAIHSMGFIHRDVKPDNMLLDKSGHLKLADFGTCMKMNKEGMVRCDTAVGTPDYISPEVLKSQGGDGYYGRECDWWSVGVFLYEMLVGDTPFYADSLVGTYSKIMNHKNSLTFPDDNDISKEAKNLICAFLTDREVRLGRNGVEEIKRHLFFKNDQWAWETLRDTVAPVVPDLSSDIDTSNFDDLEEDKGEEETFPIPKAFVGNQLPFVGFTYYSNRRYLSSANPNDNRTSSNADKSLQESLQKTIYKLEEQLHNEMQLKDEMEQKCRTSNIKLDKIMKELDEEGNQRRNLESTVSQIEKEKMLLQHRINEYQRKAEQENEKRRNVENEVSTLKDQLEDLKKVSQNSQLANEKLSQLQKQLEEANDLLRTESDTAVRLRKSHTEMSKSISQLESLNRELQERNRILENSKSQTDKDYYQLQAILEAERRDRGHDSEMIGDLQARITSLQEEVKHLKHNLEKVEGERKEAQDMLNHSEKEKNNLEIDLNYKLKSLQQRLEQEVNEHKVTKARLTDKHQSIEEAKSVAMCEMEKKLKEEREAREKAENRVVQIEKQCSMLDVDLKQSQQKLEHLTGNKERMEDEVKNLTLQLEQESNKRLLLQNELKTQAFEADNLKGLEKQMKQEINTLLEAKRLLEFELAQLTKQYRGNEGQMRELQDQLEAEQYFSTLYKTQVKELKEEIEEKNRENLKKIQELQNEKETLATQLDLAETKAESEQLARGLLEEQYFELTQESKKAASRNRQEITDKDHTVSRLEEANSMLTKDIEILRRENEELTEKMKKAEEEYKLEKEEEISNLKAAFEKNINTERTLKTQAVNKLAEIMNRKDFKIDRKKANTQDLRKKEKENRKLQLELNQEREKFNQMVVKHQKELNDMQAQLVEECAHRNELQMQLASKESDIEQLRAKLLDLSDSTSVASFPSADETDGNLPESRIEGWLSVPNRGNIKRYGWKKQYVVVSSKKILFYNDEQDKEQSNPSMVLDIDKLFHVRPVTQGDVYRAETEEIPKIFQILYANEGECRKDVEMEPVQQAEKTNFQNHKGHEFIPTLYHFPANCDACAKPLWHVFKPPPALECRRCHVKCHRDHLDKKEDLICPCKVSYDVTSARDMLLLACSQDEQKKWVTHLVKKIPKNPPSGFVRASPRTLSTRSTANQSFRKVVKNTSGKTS

[1] = biological target: T3, interaction between GST-p6 and myc-Tsg101(1-207) (Homo sapiens, UniProt Q99816); assay: In vitro binding assay: competition of p6(1-14) with GST-p6 for myc-Tsg101(1-207)
T3 construct: Drosophila S2 cell lysate myc-tagged Tsg101 (residues 1–207); made in house; host or cells: Drosophila S2 cells (used as lysate)
T3 sequence (Q99816 1-207): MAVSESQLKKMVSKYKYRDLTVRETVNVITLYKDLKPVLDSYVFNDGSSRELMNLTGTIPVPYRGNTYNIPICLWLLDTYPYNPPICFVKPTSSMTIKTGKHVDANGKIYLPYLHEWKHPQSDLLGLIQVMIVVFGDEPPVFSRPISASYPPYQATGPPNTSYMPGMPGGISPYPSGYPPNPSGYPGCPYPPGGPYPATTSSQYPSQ
Description: A fusion protein with a GST tag fused to the HIV-1 GAGp6 domain was recombinantly expressed and purified by chromatography. In addition, a GAGp6 peptide containing the first 14 amino acid residues (“p6(1–14)”) was synthesized chemically by standard peptide synthesis methods. The peptide was purified by conventional protein purification techniques, e.g., by chromatography.
Nunc/Nalgene Maxisorp plates were incubated overnight at 4° C. or for 1–2 hrs at room temperature in 100 μl of a protein coupling solution containing purified GST-p6 and 50 mM Carbonate, pH=9.6. This allowed the attachment of the GST-p6 fusion protein to the plates. Liquids in the plates were then emptied and wells filled with 400 μl/well of a blocking buffer (SuperBlock; Pierce-Endogen, Rockford, Ill.). […]
Plates were then washed 4×100 μl with 1× PBST solution (Invitrogen; Carlsbad, Calif.). […] Plates were then read on a Packard Fusion instrument at an excitation wavelength of 325 nm and an emission wavelength of 420 nm. […]
Different concentrations of the p6(1–14) peptide were tested, and the relative intensities of the fluorescence signals obtained at different concentrations were plotted against the peptide concentrations. […]

For “P6/P7L (LQSRPELTAPPEESFRFGEETTTPSQKQEPIDKELYPLASLRSLFGSDPSSQ; left off: large carriers; small tags and cut ends)”, the “ability to bind Tsg101 protein (in words)” value (shortened to “ability”) (Tsg101) was “abolishes the GAGp6 binding affinity to Tsg101” and the “β-galactosidase activity (in words)” value (Full length Tsg101) was “reduced β-galactosidase activity to background levels”.

For C[C@@H](N)[C@H]1CC[C@H](C(=O)Nc2ccncc2)CC1 [Y-27632, (+)-(R)-trans-4-(1-aminoethyl)-N-(4-pyridyl) cyclohexanecarboxamide], the “selectivity for ROCK1” value (ROCK1) is given as “highly selective for ROCK1”.

For “P6/E6G (LQSRPGPTAPPEESFRFGEETTTPSQKQEPIDKELYPLASLRSLFGSDPSSQ; left off: large carriers; small tags and cut ends)”, the “Interactions Between Tsg101 and GAGp6 (β-Gal activity, filter lift)” value (Tsg101; yeast strain Y189 co-transformed with activation domain-Tsg101 construct and binding domain-GAGp6 construct) was “+”, the “ability” value (Tsg101) was “did not result in the elimination of the Tsg101-GAGp6 interaction” and the “ability” value (Tsg101; listed as E6G GAGp6 mutant) was “capable of binding Tsg101 protein”.

With “P6/A9R (LQSRPEPTRPPEESFRFGEETTTPSQKQEPIDKELYPLASLRSLFGSDPSSQ; left off: large carriers; small tags and cut ends)” the “ability” value (Tsg101) was “abolishes the GAGp6 binding affinity to Tsg101” and the “β-galactosidase activity (in words)” value (Full length Tsg101) was “reduced β-galactosidase activity to background levels”.

With “P6/P10L (LQSRPEPTALPEESFRFGEETTTPSQKQEPIDKELYPLASLRSLFGSDPSSQ; left off: large carriers; small tags and cut ends)” the “ability” value (Tsg101) was “abolishes the GAGp6 binding affinity to Tsg101” and the “β-galactosidase activity (in words)” value (Full length Tsg101) was “reduced β-galactosidase activity to background levels”.

For “p6(1-14): chemically synthesized GAGp6 peptide containing the first 14 amino acid residues, includes the PTAP late domain motif (LQSRPEPTAPPEES)”, the “inhibition of protein-protein interaction between GST-p6 and myc-Tsg101(1-207)” value ([1]; competitive inhibition curve, FIG. 2) was “capable of inhibiting” and the “binding to the N-terminal portion of Tsg101 (amino acid residues 1–207)” value ([1]; includes the Tsg101 UEV domain) was “sufficient in binding”.
